# IntAct's records for PubMed 31515488
# B1: Protein unc-45 homolog A (Homo sapiens), Q9H3U1 (parent)
# chain: MTVSGPGTPEPRPATPGASSVEQLRKEGNELFKCGDYGGALAAYTQALGLDATPQDQAVLHRNRAACHLKLEDYDKAETEASKAIEKDGGDVKALYRRSQALEKLGRLDQAVLDLQRCVSLEPKNKVFQEALRNIGGQIQEKVRYMSSTDAKVEQMFQILLDPEEKGTEKKQKASQNLVVLAREDAGAEKIFRSNGVQLLQRLLDMGETDLMLAALRTLVGICSEHQSRTVATLSILGTRRVVSILGVESQAVSLAACHLLQVMFDALKEGVKKGFRGKEGAIIVDPARELKVLISNLLDLLTEVGVSGQGRDNALTLLIKAVPRKSLKDPNNSLTLWVIDQGLKKILEVGGSLQDPPGELAVTANSRMSASILLSKLFDDLKCDAERENFHRLCENYIKSWFEGQGLAGKLRAIQTVSCLLQGPCDAGNRALELSGVMESVIALCASEQEEEQLVAVEALIHAAGKAKRASFITANGVSLLKDLYKCSEKDSIRIRALVGLCKLGSAGGTDFSMKQFAEGSTLKLAKQCRKWLCNDQIDAGTRRWAVEGLAYLTFDADVKEEFVEDAAALKALFQLSRLEERSVLFAVASALVNCTNSYDYEEPDPKMVELAKYAKQHVPEQHPKDKPSFVRARVKKLLAAGVVSAMVCMVKTESPVLTSSCRELLSRVFLALVEEVEDRGTVVAQGGGRALIPLALEGTDVGQTKAAQALAKLTITSNPEMTFPGERIYEVVRPLVSLLHLNCSGLQNFEALMALTNLAGISERLRQKILKEKAVPMIEGYMFEEHEMIRRAATECMCNLAMSKEVQDLFEAQGNDRLKLLVLYSGEDDELLQRAAAGGLAMLTSMRPTLCSRIPQVTTHWLEILQALLLSSNQELQHRGAVVVLNMVEASREIASTLMESEMMEILSVLAKGDHSPVTRAAAACLDKAVEYGLIQPNQDGE
# partner: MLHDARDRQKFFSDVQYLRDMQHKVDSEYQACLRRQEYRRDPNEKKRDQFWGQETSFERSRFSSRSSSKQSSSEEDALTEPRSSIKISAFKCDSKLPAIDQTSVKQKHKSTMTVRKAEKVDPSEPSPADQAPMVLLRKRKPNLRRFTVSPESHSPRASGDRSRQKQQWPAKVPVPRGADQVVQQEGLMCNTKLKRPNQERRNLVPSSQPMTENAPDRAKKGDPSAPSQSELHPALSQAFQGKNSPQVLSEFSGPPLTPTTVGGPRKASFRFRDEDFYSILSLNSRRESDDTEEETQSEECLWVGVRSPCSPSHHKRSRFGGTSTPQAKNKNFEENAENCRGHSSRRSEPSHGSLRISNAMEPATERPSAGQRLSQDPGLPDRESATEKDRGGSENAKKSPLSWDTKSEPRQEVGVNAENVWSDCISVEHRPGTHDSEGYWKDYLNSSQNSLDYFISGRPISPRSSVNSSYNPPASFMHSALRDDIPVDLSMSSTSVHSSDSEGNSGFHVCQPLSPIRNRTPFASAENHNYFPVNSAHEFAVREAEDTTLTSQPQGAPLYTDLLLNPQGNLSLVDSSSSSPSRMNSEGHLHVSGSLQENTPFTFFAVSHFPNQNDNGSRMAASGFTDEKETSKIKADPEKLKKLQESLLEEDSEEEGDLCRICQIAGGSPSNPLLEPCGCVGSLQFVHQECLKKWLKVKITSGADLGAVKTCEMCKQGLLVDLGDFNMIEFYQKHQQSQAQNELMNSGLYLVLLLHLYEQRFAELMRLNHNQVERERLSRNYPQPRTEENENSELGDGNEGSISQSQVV
# B2: Protein LDOC1 (Homo sapiens), O95751 (parent)
# chain: MVDELVLLLHALLMRHRALSIENSQLMEQLRLLVCERASLLRQVRPPSCPVPFPETFNGESSRLPEFIVQTASYMLVNENRFCNDAMKVAFLISLLTGEAEEWVVPYIEMDSPILGDYRAFLDEMKQCFGWDDDEDDDDEEEEDDY
# partner: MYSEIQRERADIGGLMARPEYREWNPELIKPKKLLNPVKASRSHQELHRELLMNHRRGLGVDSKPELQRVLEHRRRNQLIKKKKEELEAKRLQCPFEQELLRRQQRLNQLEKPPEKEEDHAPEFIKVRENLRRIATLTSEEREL
# B3: LHFPL tetraspan subfamily member 5 protein (Homo sapiens), Q8TAF8 (parent)
# chain: MVKLLPAQEAAKIYHTNYVRNSRAVGVMWGTLTICFSVLVMALFIQPYWIGDSVNTPQAGYFGLFSYCVGNVLSSELICKGGPLDFSSIPSRAFKTAMFFVALGMFLIIGSIICFSLFFICNTATVYKICAWMQLAAATGLMIGCLVYPDGWDSSEVRRMCGEQTGKYTLGHCTIRWAFMLAILSIGDALILSFLAFVLGYRQDKLLPDDYKADGTEEV
# B4: Nuclear protein AMMECR1 (Homo sapiens), Q9Y4X0 (parent)
# chain: MAAGCCGVKKQKLSSSPPSGSGGGGGASSSSHCSGESQCRAGELGLGGAGTRLNGLGGLTGGGSGSGCTLSPPQGCGGGGGGIALSPPPSCGVGTLLSTPAAATSSSPSSSSAASSSSPGSRKMVVSAEMCCFCFDVLYCHLYGYQQPRTPRFTNEPYPLFVTWKIGRDKRLRGCIGTFSAMNLHSGLREYTLTSALKDSRFPPMTRDELPRLFCSVSLLTNFEDVCDYLDWEVGVHGIRIEFINEKGSKRTATYLPEVAKEQGWDHIQTIDSLLRKGGYKAPITNEFRKTIKLTRYRSEKMTLSYAEYLAHRQHHHFQNGIGHPLPPYNHYS
# partner: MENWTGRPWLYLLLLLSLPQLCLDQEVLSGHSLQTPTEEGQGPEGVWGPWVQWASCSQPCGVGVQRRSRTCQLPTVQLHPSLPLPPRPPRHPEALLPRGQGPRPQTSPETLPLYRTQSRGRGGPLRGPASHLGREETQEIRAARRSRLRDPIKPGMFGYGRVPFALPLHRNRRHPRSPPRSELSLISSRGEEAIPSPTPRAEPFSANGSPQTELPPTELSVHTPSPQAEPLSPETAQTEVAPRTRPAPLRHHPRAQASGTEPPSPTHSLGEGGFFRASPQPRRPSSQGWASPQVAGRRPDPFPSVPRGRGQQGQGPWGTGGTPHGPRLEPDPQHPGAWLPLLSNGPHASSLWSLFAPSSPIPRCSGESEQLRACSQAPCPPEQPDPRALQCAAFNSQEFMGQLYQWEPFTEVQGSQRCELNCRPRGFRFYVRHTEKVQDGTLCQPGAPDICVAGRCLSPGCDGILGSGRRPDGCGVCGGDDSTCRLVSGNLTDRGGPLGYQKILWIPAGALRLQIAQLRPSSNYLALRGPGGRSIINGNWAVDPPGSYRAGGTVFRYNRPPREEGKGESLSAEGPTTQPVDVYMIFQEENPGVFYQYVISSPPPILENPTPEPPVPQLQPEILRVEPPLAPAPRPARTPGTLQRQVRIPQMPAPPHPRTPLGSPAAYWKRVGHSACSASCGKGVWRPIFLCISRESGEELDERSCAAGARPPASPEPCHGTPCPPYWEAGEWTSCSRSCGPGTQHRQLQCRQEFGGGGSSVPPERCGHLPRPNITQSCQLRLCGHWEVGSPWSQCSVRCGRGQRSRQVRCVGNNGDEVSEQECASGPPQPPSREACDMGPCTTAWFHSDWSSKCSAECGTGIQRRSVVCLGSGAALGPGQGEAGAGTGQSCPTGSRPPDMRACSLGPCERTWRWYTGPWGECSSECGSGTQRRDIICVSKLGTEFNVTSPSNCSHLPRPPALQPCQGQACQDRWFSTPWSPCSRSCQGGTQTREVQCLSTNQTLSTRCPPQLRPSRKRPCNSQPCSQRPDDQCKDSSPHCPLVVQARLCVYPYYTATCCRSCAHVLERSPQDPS
# B5: Elongin-A2 (Homo sapiens), Q8IYF1 (parent)
# chain: MAAGSTTLHAVEKLQVRLATKTEPKKLEKYLQKLSALPMTADILAETGIRKTVKRLRKHQHVGDFARDLAARWKKLVLVDRNTRPGPQDPEESASRQRFGEALQDQEKAWGFPENATAPRSPSHSPEHRRTARRTPPGQQRPHPRSHSREPRAERKCPRIAPADSGRYRASPTRTAPLRMPEGPEPAAPGKQPGRGHTHAAQGGPLLCPGCQGQPQGKAVVSHSKGHKSSRQEKRPLCAQGDWHSPTLIREKSCGACLREETPRMPSWASARDRQPSDFKTDKEGGQAGSGQRVPALEEAPDSHQKRPQHSHSNKKRPSLDGRDPGNGTHGLSPEEKEQLSNDRETQEGKPPTAHLDRTSVSSLSEVEEVDMAEEFEQPTLSCEKYLTYDQLRKQKKKTGKSATTALGDKQRKANESKGTRESWDSAKKLPPVQESQSERLQAAGADSAGPKTVPSHVFSELWDLSEAWMQANYDPLSDSDSMTSQAKPEALSSPKFREEAAFPGRRVNAKMPVYSGSRPACQLQVPTLRQQCAQVLRNNPDALSDVGEVPYWVLEPVLEGWRPDQLYRRKKDNHALVRETDELRRNHCFQDFKEEKPQENKTWREQYLRLPDAPEQRLRVMTTNIRSARGNNPNGREAKMICFKSVAKTPYDTSRRQEKSAGDADPENGEIKPASKPAGSSHTPSSQSSSGGGRDSSSSILRWLPEKRANPCLSSSNEHAAPAAKTRKQAAKKVAPLMAKAIRDYKRRFSRR
# partner: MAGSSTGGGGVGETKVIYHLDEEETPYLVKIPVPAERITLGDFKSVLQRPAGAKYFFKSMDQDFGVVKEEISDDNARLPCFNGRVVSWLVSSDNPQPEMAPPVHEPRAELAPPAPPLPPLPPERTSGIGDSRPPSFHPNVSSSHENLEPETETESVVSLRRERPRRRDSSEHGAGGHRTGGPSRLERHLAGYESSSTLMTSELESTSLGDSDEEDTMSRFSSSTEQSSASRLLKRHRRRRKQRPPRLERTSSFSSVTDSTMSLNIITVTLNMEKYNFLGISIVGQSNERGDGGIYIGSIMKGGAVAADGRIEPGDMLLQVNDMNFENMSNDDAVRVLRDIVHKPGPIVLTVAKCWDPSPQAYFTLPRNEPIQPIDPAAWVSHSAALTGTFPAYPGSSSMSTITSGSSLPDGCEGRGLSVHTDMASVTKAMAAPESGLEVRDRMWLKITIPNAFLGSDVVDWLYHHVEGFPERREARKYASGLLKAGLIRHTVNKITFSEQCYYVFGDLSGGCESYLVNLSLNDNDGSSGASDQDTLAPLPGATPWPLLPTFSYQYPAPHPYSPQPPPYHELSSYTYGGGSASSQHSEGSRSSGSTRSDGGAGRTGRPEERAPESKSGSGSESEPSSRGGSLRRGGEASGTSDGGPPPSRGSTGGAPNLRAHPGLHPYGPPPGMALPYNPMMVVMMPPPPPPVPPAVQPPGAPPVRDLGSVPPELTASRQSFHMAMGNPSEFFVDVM
# Variants of: B1
# Details: with marha_human MARCHF10, Q8NA82
row,effect of a mutation on the interaction,Variant
1,with no effect,T796M

# Variants of: B2
# Details: with FAM107A
row,effect of a mutation on the interaction,Variant
1,disrupting interaction strength,L12H

# Variants of: B3
# Details: with BCL2L13, Q9BXK5
# Sequence of BCL2L13, Q9BXK5 (Q9BXK5 whole entry): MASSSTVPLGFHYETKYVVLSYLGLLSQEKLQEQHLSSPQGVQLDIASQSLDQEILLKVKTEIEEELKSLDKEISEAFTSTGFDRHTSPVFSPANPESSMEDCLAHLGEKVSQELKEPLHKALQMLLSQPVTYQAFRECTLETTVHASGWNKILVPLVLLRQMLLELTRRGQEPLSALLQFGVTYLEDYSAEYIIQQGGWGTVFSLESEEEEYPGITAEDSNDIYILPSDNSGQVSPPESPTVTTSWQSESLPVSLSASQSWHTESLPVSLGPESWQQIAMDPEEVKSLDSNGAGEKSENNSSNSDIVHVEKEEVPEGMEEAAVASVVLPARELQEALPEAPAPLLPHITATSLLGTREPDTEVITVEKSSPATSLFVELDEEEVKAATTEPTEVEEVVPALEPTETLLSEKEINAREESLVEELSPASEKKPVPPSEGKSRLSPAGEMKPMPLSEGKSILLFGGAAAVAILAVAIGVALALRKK
row,effect of a mutation on the interaction,Variant
1,with no effect,MVKLLPAQEAAKIYHTNYVRNSRAVGVMWGTLTICFSVLVMALFIQPYWIGDSVNTPQAGYFGLFSYCVGNVLSSELICKGGPLDFSSIPSRAFKTAMFFVALGMFLIIGSIICFSLFFICNTATVYKICAWMQLAAATGLMIGCLVYPDGWDSSEVRRMCGEQTGKYTLGHCTIRWAFMLAILSIGDALILSFLAFVLGYRQDNLLPDDYKADGTEEV [K205N]

# Variants of: B4
# Details: with atl4_human ADAMTSL4, Q6UY14
row,effect of a mutation on the interaction,Variant
1,with no effect,R207G

# Variants of: B5
# Details: with dvl2_human DVL2, O14641
row,effect of a mutation on the interaction,Variant
1,with no effect,G505R
2,with no effect,A403S
